Values of other authors, collected in article PMC4747809.

Columns and labels:
[1] = target: iC3b/C3dg TED (iC3b, C3dg) (Homo sapiens) (UniProt P01024)
[2] = target: iC3b/C3dg iC3b, C3dg (Homo sapiens) (UniProt P01024)
Sequence of iC3b/C3dg iC3b, C3dg (Homo sapiens) (P01024 955-1303): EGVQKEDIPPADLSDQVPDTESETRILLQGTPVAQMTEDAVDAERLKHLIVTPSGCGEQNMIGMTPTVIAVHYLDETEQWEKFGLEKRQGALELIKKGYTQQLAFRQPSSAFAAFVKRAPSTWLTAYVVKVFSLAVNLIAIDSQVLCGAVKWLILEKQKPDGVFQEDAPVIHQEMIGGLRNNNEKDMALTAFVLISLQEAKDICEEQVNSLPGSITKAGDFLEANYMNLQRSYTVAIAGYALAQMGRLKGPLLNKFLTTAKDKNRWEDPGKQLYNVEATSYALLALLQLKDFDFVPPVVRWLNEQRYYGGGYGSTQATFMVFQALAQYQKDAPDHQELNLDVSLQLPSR

Sequence of Factor H (FH) domains 19-20 (P08603 1107-1231): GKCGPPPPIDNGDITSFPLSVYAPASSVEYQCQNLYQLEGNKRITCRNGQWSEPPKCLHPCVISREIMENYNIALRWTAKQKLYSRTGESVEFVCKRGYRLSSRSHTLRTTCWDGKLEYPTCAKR
Sequence of iC3b/C3dg TED (iC3b, C3dg) (Homo sapiens) (P01024 955-1303): as the sequence (P01024 955-1303) above
Sequence of Complement receptor 2 (CR2) domains 1-4 (P20023 21-273): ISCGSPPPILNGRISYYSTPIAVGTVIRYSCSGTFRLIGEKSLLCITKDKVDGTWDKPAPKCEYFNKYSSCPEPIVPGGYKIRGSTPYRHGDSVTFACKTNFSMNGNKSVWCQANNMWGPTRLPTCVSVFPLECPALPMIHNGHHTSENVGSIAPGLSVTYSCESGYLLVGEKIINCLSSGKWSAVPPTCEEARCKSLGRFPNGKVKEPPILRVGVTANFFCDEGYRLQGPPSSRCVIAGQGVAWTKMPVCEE

| Kd [1] | Kd [2] | Substance |
| --- | --- | --- |
| 500 nM | – | Complement receptor 2 (CR2) domains 1-4 (from UniProt P20023) |
| – | 5000 nM | Factor H (FH) domains 19-20 (from UniProt P08603) |
